Experimental data: patent publication US12304939B2, “EGFR and C-met fibronectin type III domain binding molecules” (Janssen Biotech, Inc., priority 2012, dated 2025)

Key:
[1] = biological target: T1, recombinant EGFR extracellular domain (EGFR-Fc) (Homo sapiens, UniProt P00533); assay: EGFR-Fc affinity by surface plasmon resonance (Proteon); format: binding; conditions: SPR, 1:1 Langmuir fit; read-out: EGFR-Fc Affinity
T1 construct: purchased R&D Systems
Experimental: Select EGFR-binding FN3 domains were screened to identify those with slow off-rates (koff) in binding to EGFR-Fc on a ProteOn XPR-36 instrument (Bio-Rad) to facilitate selection of high affinity binders. Goat anti-human Fc IgG (R&D systems), at a concentration of 5 μg/mL, was directly immobilized via amine coupling (at pH 5.0) on all 6 ligand channels in horizontal orientation on the chip with a flow rate of 30 μL/min in PBS containing 0.005% Tween-20. The immobilization densities averaged about 1500 Response Units (RU) with less than 5% variation among different channels. EGFR-Fc was captured on the anti-human Fc IgG surface to a density around 600 RU in vertical ligand orientation. All tested FN3 domains were normalized to a concentration of 1 μM and tested for their binding in horizontal orientation. […] The dissociation phase was monitored for 10 minutes at a flow rate of 100 μL/min. […]
Binding affinity of selected EGFR-binding FN3 domains to recombinant EGFR extracellular domain was further characterized by surface Plasmon resonance methods using a Proteon Instrument (BioRad). […] The dissociation phase for all concentrations of each EGFR-binding FN3 domain was monitored at a flow rate of 100 μL/min for 30 minutes (for those with koff ˜10^−2 s^−1 from off-rate screening), or 1 hour (for those with koff ˜10^−3 s^−1 or slower). […]

[2] = biological target: EGFR on A431 cells (Homo sapiens, UniProt P00533); assay: A431 cell binding assay; conditions: purified FN3 domains
[3] = biological target: EGF binding to EGFR on A431 cells (Homo sapiens, UniProt P00533); assay: A431 cell EGF competition assay; conditions: 30 ng/mL biotinylated EGF
Experimental: To better characterize the mechanism of EGFR binding, the ability of various identified FN3 domain clones to bind EGFR in an EGF-competitive manner was measured using A431 cells and run in parallel with the A431 binding assay screen. […] Biotinylated EGF (Invitrogen, cat. #E-3477) was added to each well for a final concentration of 30 ng/mL and incubated for 10 minutes at room temperature.
Bacterial lysates containing the FN3 domains were screened in the EGF competition assay described above.
Biotinylated EGF (Invitrogen, Cat #: E-3477) was added to each well to give a final concentration of 30 ng/mL and incubated for 10 minutes at room temperature.

[4] = biological target: EGFR (Homo sapiens, UniProt P00533); assay: Phospho-EGFR assay: inhibition of EGF-stimulated EGFR phosphorylation (Tyr1173) in A431 cells; format: cell-based; conditions: 50 ng/mL EGF
[5] = tested on: NCI-H292 cells; assay: NCI-H292 growth assay; format: cell-based, human; conditions: 120 hours, CellTiter-Glo
Experimental: (§1) Inhibition of EGFR-dependent cell growth was assessed by measuring viability of the EGFR over-expressing human tumor cell lines, NCI-H292 and NCI-H322 (American Type Culture Collection, cat. #CRL-1848 & #CRL-5806, respectively), following
(§2) exposure to EGFR-binding FN3 domains. […] Cells were treated by addition of 5 μL/well of phosphate-buffered saline (PBS) containing a concentration range of EGFR-binding FN3 domains. Controls were treated with 5 μL/well of PBS only or 25 mM ethylenediaminetetraacetic acid in PBS. […] Viable cells were detected by addition of 75 μL/well of CellTiter-Glo® reagent (Promega), followed by mixing on a plate shaker for 2 minutes, and incubation in the dark at room temperature for a further 10 minutes. Plates were read on a SpectraMax M5 plate reader (Molecular Devices) set to luminescence mode, with a read time of 0.5 seconds/well against a blank of medium only. Data were plotted as a percentage of PBS-treated cell growth against the logarithm of FN3 domain molar concentration.

[6] = tested on: NCI-H322 cells; assay: NCI-H322 growth assay; format: cell-based, human; conditions: 120 hours, CellTiter-Glo
Experimental: as §1, §2

B1: P54AR4-47: EGFR-binding FN3 domain, SEQ ID NO: 20 (protein)
chain: LPAPKNLVVSEVTEDSLRLSWGYNGDHFDSFLIQYQESEKVGEAINLTVPGSERSYDLTGLKPGTEYTVSIYGVHNVYKDTNMRGLPLSAEFTT
modifications: EGFR binding FN3 domain
Kd [1]: 2.51 nM | EC50 [2]: 8.6 nM | IC50 [3]: 7.1 nM | IC50 [4]: 295 nM | IC50 [5]: 44 nM | IC50 [6]: 39 nM
